The target of assay [1] is T1, Ffh (UniProt P0AGD7 1-453).
T1 construct: Ffh, the GTPase of the bacterial signal recognition particle; The methods of the fluorescence experiment name 'SRP' (2 uM), not Ffh alone; also called SRP GTPase; wild-type Ffh
T1 sequence (looked up): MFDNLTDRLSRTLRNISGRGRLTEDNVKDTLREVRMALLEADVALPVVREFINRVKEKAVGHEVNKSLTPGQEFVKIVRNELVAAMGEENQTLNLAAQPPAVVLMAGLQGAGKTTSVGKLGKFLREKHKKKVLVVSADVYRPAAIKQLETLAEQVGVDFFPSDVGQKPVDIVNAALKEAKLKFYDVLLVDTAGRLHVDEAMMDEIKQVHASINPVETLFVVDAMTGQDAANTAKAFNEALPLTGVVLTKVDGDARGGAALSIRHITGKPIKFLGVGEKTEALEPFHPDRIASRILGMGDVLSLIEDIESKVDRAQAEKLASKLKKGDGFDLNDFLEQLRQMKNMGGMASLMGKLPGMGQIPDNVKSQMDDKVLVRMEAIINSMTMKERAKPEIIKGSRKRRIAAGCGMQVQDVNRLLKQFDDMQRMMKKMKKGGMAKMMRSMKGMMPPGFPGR
The assay is described as follows: other fluorescence titration; tryptophan fluorescence of FtsY, time course at 335 nm; 1 uM mutant or wild-type FtsY, 2 uM SRP, 100 uM GppNHp, complex formation started by addition of Mg2+. The note with it: both partners purified.

For assay [2], the target named is T1, Ffh. Put plainly: GTPase inhibition (competition) assay; mutant FtsY varied as inhibitor of the GTPase reaction of Ffh with subsaturating wild-type FtsY; under these conditions Ki equals Kd of the Ffh-FtsY(mt) complex; fit to equation 3. The following applies: both partners purified.

B1: wild-type FtsY(47-497) (domain or fragment, Escherichia coli, UniProt P10121 47-497, looked up)
chain: ASEQAVEEQPQAHTEAEAETFAADVVEVTEQVAESEKAQPEAEVVAQPEPVVEETPEPVAIEREELPLPEDVNAEAVSPEEWQAEAETVEIVEAAEEEAAKEEITDEELETALAAEAAEEAVMVVPPAEEEQPVEEIAQEQEKPTKEGFFARLKRSLLKTKENLGSGFISLFRGKKIDDDLFEELEEQLLIADVGVETTRKIITNLTEGASRKQLRDAEALYGLLKEEMGEILAKVDEPLNVEGKAPFVILMVGVNGVGKTTTIGKLARQFEQQGKSVMLAAGDTFRAAAVEQLQVWGQRNNIPVIAQHTGADSASVIFDAIQAAKARNIDVLIADTAGRLQNKSHLMEELKKIVRVMKKLDVEAPHEVMLTIDASTGQNAVSQAKLFHEAVGLTGITLTKLDGTAKGGVIFSVADQFGIPIRYIGVGERIEDLRPFKADDFIEALFARED
notes: FtsY, SRP receptor, Escherichia coli, residues 47-497; also called SRP receptor; SR; source: expressed and purified as in Powers and Walter 1997; Peluso et al. 2001
Broadly, the koff is the rate constant with which the complex falls apart. A word on the kon: it is the second-order rate constant of association. A high value points to fast association. In the assay with Ffh [1], B1 returned a koff of 0.0036 s⁻¹ and a kon of 63600 M⁻¹ s⁻¹.

B2: FtsY A335(140)W (domain or fragment, Escherichia coli, UniProt P10121 47-497, looked up)
chain: ASEQAVEEQPQAHTEAEAETFAADVVEVTEQVAESEKAQPEAEVVAQPEPVVEETPEPVAIEREELPLPEDVNAEAVSPEEWQAEAETVEIVEAAEEEAAKEEITDEELETALAAEAAEEAVMVVPPAEEEQPVEEIAQEQEKPTKEGFFARLKRSLLKTKENLGSGFISLFRGKKIDDDLFEELEEQLLIADVGVETTRKIITNLTEGASRKQLRDAEALYGLLKEEMGEILAKVDEPLNVEGKAPFVILMVGVNGVGKTTTIGKLARQFEQQGKSVMLAAGDTFRAWAVEQLQVWGQRNNIPVIAQHTGADSASVIFDAIQAAKARNIDVLIADTAGRLQNKSHLMEELKKIVRVMKKLDVEAPHEVMLTIDASTGQNAVSQAKLFHEAVGLTGITLTKLDGTAKGGVIFSVADQFGIPIRYIGVGERIEDLRPFKADDFIEALFARED
notes: FtsY, Escherichia coli, residues 47-497, with A335W; number in parentheses is the T. aquaticus number; also called mutant FtsY A335(140)W; Class II mutant; source: expressed and purified as wild-type FtsY (Powers and Walter 1997; Peluso et al. 2001)
A word on the Ki: it is the equilibrium dissociation constant of an inhibitor or competing ligand from its target. A higher Ki goes with a looser hold on the target. In the case of B2, in the assay with Ffh [1], the koff was found to be 0.0042 s⁻¹ and the kon is 63400 M⁻¹ s⁻¹. In addition, the inhibitory constant (Ki) in the assay with Ffh [2] came to 16 nM.
